Experimental findings from US20090187998A1 are described below.

For this assay, the target named is wild-type serum response factor (SRF) in mouse heart (mouse) (UniProt Q9JM73). In words: cell-based or functional assay.
Chain of UniProt Q9JM73 (Q9JM73 whole entry): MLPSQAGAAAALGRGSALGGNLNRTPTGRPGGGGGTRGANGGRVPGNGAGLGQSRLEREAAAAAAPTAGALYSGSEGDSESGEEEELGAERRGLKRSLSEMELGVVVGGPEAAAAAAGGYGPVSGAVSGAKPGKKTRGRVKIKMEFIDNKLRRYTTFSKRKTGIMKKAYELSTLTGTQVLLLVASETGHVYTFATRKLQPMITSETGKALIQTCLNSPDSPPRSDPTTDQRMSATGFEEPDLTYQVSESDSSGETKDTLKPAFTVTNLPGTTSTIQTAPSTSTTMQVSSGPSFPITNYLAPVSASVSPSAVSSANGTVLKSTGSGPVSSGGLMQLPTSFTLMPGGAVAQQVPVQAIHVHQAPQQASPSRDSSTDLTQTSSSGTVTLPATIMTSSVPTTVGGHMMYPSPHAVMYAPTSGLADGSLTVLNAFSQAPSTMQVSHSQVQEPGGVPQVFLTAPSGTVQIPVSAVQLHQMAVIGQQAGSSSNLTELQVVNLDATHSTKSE

In turn, “dominant negative mutant form of human SRF (Thr->Ser at position 159 and Lys->Glu at position 163 of SRF) (from UniProt P11831 1-508)” registered an EMSA: binding of SRF in heart protein lysate to the biotin-labeled wild-type SRE probe (Mild-R SRF Tg vs Non-Tg) of 47 % reduced.
